Assay results published in patent US11634486B2, “Anti-SEZ6L2 antibodies and antibody drug conjugates” (Bluefin BioMedicine, Inc., priority 2016, dated 2023).

Test system: small cell lung cancer cell line NCI-H209
Test: ADC combined with PARP inhibitor, cell viability
Type: cell-based, human
Conditions: 10 pM conjugate plus olaparib 10 nM to 10 uM, six days
Description: Briefly, the small cell lung cancer cell line NCI-H209, which expresses ˜10,000 copies of SEZ6L2 on the cell surface, was seeded onto 96 well plate at 5000 cells/well Immediately after seeding, 10 pM of 3E2-PBD or isotype control hIgG-PBD (bearing a drug antibody ratio (DAR) of 1.7 and 2.5 respectively) were added to the wells in complete culture medium. A PARP inhibitor (olaparib) was then added to these wells such that the final concentration ranged from 10 nM to 10 uM. The PARP inhibitor was also tested on cells without an ADC. Each treatment was replicated in 2 wells and after six days, the PARP inhibitor plus modulator-mediated PBD cytotoxicity was assessed by quantifying the remaining number of live cells using Cell Titer Glo™. Cell viability was graphed by Prism™ using ratio of cell viability of test conditions to that of control wells treated with growth medium only.

B1: 3E2-PBD (conjugate)
VH: EVQLVESGGGLVQPGGSLKLSCAASGFSFNTITMNWVRQASGKGLEWVGRIRSKSNNYATYYADAVKDRFTISRDDSKNTAYLQMNSLKTEDTAVYYCVRGIFSGYVYAMDYWGQGTLVTVSSA
VL: DVVMTQSPLSLPVTVGQPASISCRSSQSIVHSNGNTYLEWFQQRPGQSPRVLIYKVSNRFSGVPDRFSGSGSGTDFTLKISRVEAEDVGVYYCFQGSHVPYTFGGGTKLEIKR
- percent viable cells, conjugate combined with PARP inhibitor: additive effect
